Experimental data: patent publication US20220062341A1 (KIRIN, published 2022)

B1: modified TCR ba2 (TCR)
TCR alpha: NIQNPDPAVYQLRDSKSSDKSVCLFTDFDSQTNVSQSKDSDVYITDKTVLDMRSMDFKSNSAVAWSNKSDFACANAFNNSIIPEDTFFPSPESSCDVKLVEKSFETDTNLNFQNLSVIGFRILLLKVAGFNLLMTLRLWSS
TCR beta: EDLKNVFPPEVAVFEPSEAEISHTQKATLVCLATGFYPDHVELSWWVNGKEVHSGVSTDPQPLKEQPALNDSRYCLSSRLRVSATFWQNPRNHFRCQVQFYGLSENDEWTQDRAKPVTQIVSAEAWGRADCGFTSESYQQGVLSATILYEILLGKATLYAVLVSALVLMAMVKRKDSRG
B2: modified TCR ba4 (TCR)
TCR alpha: B1 TCR alpha
TCR beta: VSTDPQPLKEQPALNDSRYCLSSRLRVSATFWQNPRNHFRCQVQFYGLSENDEWTQDRAKPVTQIVSAEAWGRADCGFTSESYQQGVLSATILYEILLGKATLYAVLVSALVLMAMVKRKDSRG
B3: modified TCR ba9 (TCR)
TCR alpha: KSNSAVAWSNKSDFACANAFNNSIIPEDTFFPSPESSCDVKLVEKSFETDTNLNFQNLSVIGFRILLLKVAGFNLLMTLRLWSS
TCR beta: B1 TCR beta
B4: full-length TCR (ba1) (TCR)
chain: MLSLLLLLLGLGSVFSAVISQKPSRDICQRGTSLTIQCQVDSQVTMMFWYRQQPGQSLTLIATANQGSEATYESGFVIDKFPISRPNLTFSTLTVSNMSPEDSSIYLCSVDGQGNTGELFFGEGSRLTVLEDLKNVFPPEVAVFEPSEAEISHTQKATLVCLATGFYPDHVELSWWVNGKEVHSGVSTDPQPLKEQPALNDSRYCLSSRLRVSATFWQNPRNHFRCQVQFYGLSENDEWTQDRAKPVTQIVSAEAWGRADCGFTSESYQQGVLSATILYEILLGKATLYAVLVSALVLMAMVKRKDSRGSGSGEGRGSLLTCGDVEENPGPMACPGFLWALVISTCLEFSMAQTVTQSQPEMSVQEAETVTLSCTYDTSESDYYLFWYKQPPSRQMILVIRQEAYKQQNATENRFSVNFQKAAKSFSLKISDSQLGDAAMYFCAYWSNNNARLMFGDGTQLVVKPNIQNPDPAVYQLRDSKSSDKSVCLFTDFDSQTNVSQSKDSDVYITDKTVLDMRSMDFKSNSAVAWSNKSDFACANAFNNSIIPEDTFFPSPESSCDVKLVEKSFETDTNLNFQNLSVIGFRILLLKVAGFNLLMTLRLWSS

Target: CD3 subunits (CD3E, CD3G, CD3D, CD3Z) (human, UniProt P07766 23-207; P09693 23-182; P04234 22-171; P20963 22-164)
Assay: cell-based or functional assay

CD3 subunits (CD3E, CD3G, CD3D, CD3Z), sequence (P07766 23-207, chain 1 of 4): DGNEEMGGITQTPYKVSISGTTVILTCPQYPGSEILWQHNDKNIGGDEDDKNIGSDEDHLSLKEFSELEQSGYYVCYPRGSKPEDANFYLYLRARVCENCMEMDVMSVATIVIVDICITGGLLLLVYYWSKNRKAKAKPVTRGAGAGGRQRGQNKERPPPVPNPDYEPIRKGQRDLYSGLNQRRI
CD3 subunits (CD3E, CD3G, CD3D, CD3Z), sequence (P09693 23-182, chain 2 of 4): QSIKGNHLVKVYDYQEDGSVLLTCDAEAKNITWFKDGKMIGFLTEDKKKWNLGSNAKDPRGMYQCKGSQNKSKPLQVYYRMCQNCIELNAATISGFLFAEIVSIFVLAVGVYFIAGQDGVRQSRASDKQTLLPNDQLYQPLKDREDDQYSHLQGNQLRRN
CD3 subunits (CD3E, CD3G, CD3D, CD3Z), sequence (P04234 22-171, chain 3 of 4): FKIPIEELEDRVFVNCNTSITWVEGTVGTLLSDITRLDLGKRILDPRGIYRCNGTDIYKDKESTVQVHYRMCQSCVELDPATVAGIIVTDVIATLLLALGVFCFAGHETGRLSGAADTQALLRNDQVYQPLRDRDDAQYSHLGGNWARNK
CD3 subunits (CD3E, CD3G, CD3D, CD3Z), sequence (P20963 22-164, chain 4 of 4): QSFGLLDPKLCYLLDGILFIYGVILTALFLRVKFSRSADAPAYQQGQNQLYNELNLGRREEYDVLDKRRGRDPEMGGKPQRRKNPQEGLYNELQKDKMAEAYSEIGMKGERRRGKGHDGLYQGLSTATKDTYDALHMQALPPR

expression of CD3 (CD3-positive proportion), cells differentiated from iPS-derived HPCs (FF-WJs524), Day 21	Binder
50.4%	B1
38.3%	B2
99.5%	B3
99.8%	B4

Target: CD3E (human, UniProt P07766 23-207)
Assay: cell-based or functional assay

CD3E, sequence (P07766 23-207): as the sequence (P07766 23-207, chain 1 of 4) above

CD3E-positive proportion [%] (Avg, n = 2), CD3-stably expressing 293T cells	Binder
84.5%	B1
10.2%	B2
90.7%	B3
88.7%	B4
